The values that follow come from patent publication US20200181261A1 (Bayer, published 2020).

Where a chain is given by its changes, count along the chain named.

B1: TPP-3821 (antibody, human IgG2, kappa, V domains shown)
VH: QVTLRESGPALVKPTQTLTLTCTFSGFSLSTYGIGVGWIRQPPGKALEWLAHIWWNDNKYYSTSLKTRLTISKDTSKNQVVLTMTNMDPVDTATYYCARISLPYFDYWGQGTLVTVSS
VL: DIQLTQSPSFLSASVGDRVTITCKASQNVGTAVAWYQQKPGKAPKLLIYSASNRYTGVPSRFSGSGSGTEFTLTISSLQPEDFATYYCQQYNNYPLTFGGGTKVEIKR
notes: humanized from TPP-3187, human IgG2; also called 3187HU2-hIgG2Kappa
B2: TPP-3820 (antibody, human IgG2, kappa, V domains shown)
VH: B1 VH with S30T, A46G
VL: B1 VL
notes: humanized from TPP-3187, human IgG2; also called 3187HU1-hIgG2Kappa
B3: TPP-3310 (antibody, human IgG2, kappa)
heavy: QVTLRESGPALVKPTQTLTLTCTFSGFSLSTYGIGVGWIRQPPGKALEWLAHIWWNDNKYYSTSLKTRLTISKDTSKNQVVLTMTNMDPVDTATYYCARISLPYFDYWGQGTTLTVSSASTKGPSVFPLAPCSRSTSESTAALGCLVKDYFPEPVTVSWNSGALTSGVHTFPAVLQSSGLYSLSSVVTVPSSNFGTQTYTCNVDHKPSNTKVDKTVERKCCVECPPCPAPPVAGPSVFLFPPKPKDTLMISRTPEVTCVVVDVSHEDPEVQFNWYVDGVEVHNAKTKPREEQFNSTFRVVSVLTVVHQDWLNGKEYKCKVSNKGLPAPIEKTISKTKGQPREPQVYTLPPSREEMTKNQVSLTCLVKGFYPSDIAVEWESNGQPENNYKTTPPMLDSDGSFFLYSKLTVDKSRWQQGNVFSCSVMHEALHNHYTQKSLSLSPG
light: DIQLTQSPSFLSASVGDRVTITCKASQNVGTAVAWYQQKPGKAPKLLIYSASNRYTGVPSRFSGSGSGTEFTLTISSLQPEDFATYYCQQYSSYPLTFGGGTKVEIKRTVAAPSVFIFPPSDEQLKSGTASVVCLLNNFYPREAKVQWKVDNALQSGNSQESVTEQDSKDSTYSLSSTLTLSKADYEKHKVYACEVTHQGLSSPVTKSFNRGEC
notes: humanized from TPP-2971, human IgG2; also called TPP-2971HU1-hIgG2Kappa
B4: TPP-3707 (antibody, human IgG2, kappa, V domains shown)
VH: EVQLVESGGGLVQPGGSLRLSCAASGFTFSLYQMHWVRQAPGKGLEWVSWISFSGGNTGYADSVKGRFTISRDNSKNTLYLQMNSLRAEDTAVYYCARATGYSSPWYLDPWGQGTLVTVSS
VL: DIQMTQSPSSLSASVGDRVTITCQASHEIDNYLNWYQQKPGKAPKLLIYDAYWSKTGVPSRFSGSGSGTDFTLTISSLQPEDIATYYCQGYDDLSVTFGGGTKVDIKR
notes: also called 090E-M007-A09-Mat2-hIgG2-hIgG2Kappa
B5: TPP-2971 (antibody, mouse IgG1, V domains shown)
VH: QVTLKESGPGILQPSQTLSLTCSFSGFSLSTYGIGVGWIRQPSGKDLEWLAHIWWNDNKYYNTALKSRLTISKDTSNNQVFLKIASVDTADTATYYCARISLPYFDYWGQGTTLTVSS
VL: DIVMTQSQKFMSTSVGDRVSITCKASQNVGTAVAWYQQKPGQSPKLLIYSASNRYTGVPDRFTGSGSGTDFTLTISNMQSEDLADYFCQQYSSYPLTFGAGTKLELK
notes: murine hybridoma antibody, mouse IgG1; also called 792.15H12C9
B6: TPP-3187 (antibody, mouse IgG1, V domains shown)
VH: B5 VH with S30T, D46G
VL: B5 VL with S92N, S93N
notes: murine hybridoma antibody, mouse IgG1; also called 792.15C4F4
B7: TPP-3705 (antibody, human IgG2, kappa, V domains shown)
VH: B4 VH
VL: B4 VL with S54L
notes: also called 090E-M007-A09-Mat1-hIgG2-hIgG2Kappa
B8: TPP-3323 (antibody, human IgG2, kappa, V domains shown)
VH: B5 VH with S30T, D46G
VL: DIVMTQSQKFMSTSVGDRVSITCKASQNVGTAVAWYQQKPGQSPKLLIYSASNRYTGVPDRFTGSGSGTDFTLTISNMQSEDLADYFCQQYNNYPLTFGAGTKLELKR
notes: human IgG2 chimera; also called TPP-3187X1-hIgG2; hIgG2 chimera of TPP-3187
B9: TPP-3308 (antibody, human IgG2, kappa, V domains shown)
VH: B5 VH
VL: B8 VL with N92S, N93S
notes: human IgG2 chimera; also called TPP-2971X1-hIgG2Kappa; hIgG2 chimera of TPP-2971

The first test addresses T1, human CEACAM19, full-length, on transfected HeLa cells (human, UniProt Q7Z692 33-300).
T1 construct: also called TPP-4186; HeLa human CEACAM19
T1 sequence: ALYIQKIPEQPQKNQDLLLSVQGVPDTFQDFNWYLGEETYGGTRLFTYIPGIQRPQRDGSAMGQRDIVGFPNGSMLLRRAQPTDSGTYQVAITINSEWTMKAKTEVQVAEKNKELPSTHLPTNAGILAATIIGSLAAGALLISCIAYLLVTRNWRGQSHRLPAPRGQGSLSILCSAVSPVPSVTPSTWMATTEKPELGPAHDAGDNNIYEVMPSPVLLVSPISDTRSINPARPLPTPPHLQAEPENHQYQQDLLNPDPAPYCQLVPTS
As to the kind of experiment: FACS, transfected HeLa cells. In outline:
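Antibody binding to transfected HeLa cells was measured by FACS on a Canto II or FACS Array instrument. For half maximal binding (EC₅₀), primary antibodies were titrated from 0.1 nM to 100 nM. Median fluorescence intensity was plotted against log concentration, and curves were fitted in Graph Pad prism. Cells had been released with EDTA dissociation buffer and stained at 4° C.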
As to B1, the binding result is recorded as “no binding (tested: 5 µg/ml)”.
Consider B2, for which the binding result is recorded as “no binding (tested: 5 µg/ml)”.
Still for that read-out and setting: to B3 belongs “no binding (tested: 5 µg/ml)”; to B4, “no binding (tested: 5 µg/ml)”.

Another test concerns the target T2, human CEACAM6, extracellular (mature form), R&D Systems 3934-CM (human, UniProt P40199 35-320).
T2 construct: used biotinylated in some assays; also called TPP-1436; Recombinant human CEACAM6
T2 sequence: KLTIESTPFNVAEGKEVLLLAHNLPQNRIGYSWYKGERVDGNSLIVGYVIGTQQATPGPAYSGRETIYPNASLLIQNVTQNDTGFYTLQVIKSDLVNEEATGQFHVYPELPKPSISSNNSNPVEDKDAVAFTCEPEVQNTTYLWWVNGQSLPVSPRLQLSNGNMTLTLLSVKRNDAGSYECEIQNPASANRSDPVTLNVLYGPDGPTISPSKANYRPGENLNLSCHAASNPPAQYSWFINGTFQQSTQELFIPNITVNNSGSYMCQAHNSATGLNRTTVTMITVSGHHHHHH
Kind of test: SPR, antibody captured, antigen as analyte.
Consider B5, for which the affinity, expressed as Kd, was 61 nM. This lies in the double-digit nanomolar range.
Same read-out and setting: to B6 belongs 68 nM; to B1, 24 nM; to B2, 27 nM.
In turn, B3 registered a dissociation constant (Kd) of 13 nM.
B7: binding was put at a Kd of 28 nM.
Take B4: the Kd amounted to 28 nM. This lies in the double-digit nanomolar range.

For a further test, the target named is T3, Human CEACAM6-Domain 1-His (expressed in E. coli), wild-type (human).
T3 construct: entry includes the His tag; also called hDOM1
T3 chain: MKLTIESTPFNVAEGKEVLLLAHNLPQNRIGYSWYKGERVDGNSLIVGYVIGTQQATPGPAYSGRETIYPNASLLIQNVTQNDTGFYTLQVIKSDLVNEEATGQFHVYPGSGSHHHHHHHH
Kind of test: SPR, antibody captured, antigen as analyte. How it is done: (§1) Surface plasmon resonance (SPR) experiments for quantitative binding analyses were performed either using a Biacore T100, Biacore T200 or a Biacore 4000 instrument (GE Healthcare Biacore, Inc.) equipped with Series S Sensor Chips CM5 (GE Healthcare Biacore, Inc.). Binding assays were carried out at 25° C. with assay buffer HBS-EP+(10 mM HEPES pH 7.4, 150 mM NaCl, 3 mM EDTA, 0.05% Surfactant P20). Antibodies were captured with an anti-hIgG capture antibody covalently immobilized to the chip surface via amine coupling chemistry. Reagents for amine coupling (1-ethyl-3-(3-dimethylaminopropyl) carbodiimide hydrochloride (EDC), N-hydroxysuccinimide (NHS), ethanolamine-HCl pH 8.5) were used from the Amine Coupling Kit (GE Healthcare, product code BR-1000-50). Anti-hIgG, anti-mIgG capture antibodies and immobilization buffer (10 mM sodium acetate pH 5.0) were used from the Human Antibody Capture Kit (GE Healthcare, BR-1008-39) and the Mouse Antibody Capture Kit (GE Healthcare, BR-1008-38), respectively. The sensor chip surface was activated with a freshly prepared solution of 0.2 M EDC and 0.05 M NHS passed over the chip surface for 420 s at a flow rate of 10 μl/min, followed by an injection of anti-hIgG or anti-mIgG capture antibody (dissolved to 25 μg/ml in immobilization buffer) for 180 s at a flow rate of […]. Excess of activated groups were blocked with a 1 molar solution of ethanolamine injected at a flow rate of 10 μl/min for 420 s.
(§2) CEACAM antigens were used as analyte to determine KD values. Antibodies were captured for 20 s at a flow rate of 10 μl/min prior to each analyte injection.
In turn, B5 had a Kd of 11 nM.
In the case of B8, binding was characterised by a dissociation constant (Kd) of 9 nM.
B9 showed a Kd of 9.5 nM.
The molecule B6 returned a dissociation constant (Kd) of 12 nM.
Turning to B1, the Kd was determined as 4.5 nM. This Kd lies about 2.7-fold lower than the previous one.
On the same count and under the same terms, to B2 belongs 5.1 nM; to B3, 3.7 nM; to B7, 6.7 nM.
On the same count and under the same terms, to B4 belongs 6.4 nM.

The next test deals with T4, Macaca fascicularis CEACAM6-Domain 1-His (expressed in E. coli) (Macaca fascicularis).
T4 construct: entry includes the His tag; also called TPP-2453; Recombinant single domain 1 of Macaca fascicularis CEACAM6
T4 chain: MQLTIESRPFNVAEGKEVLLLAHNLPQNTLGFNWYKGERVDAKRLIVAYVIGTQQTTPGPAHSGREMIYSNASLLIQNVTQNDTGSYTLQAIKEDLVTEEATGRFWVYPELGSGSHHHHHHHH
As to the kind of experiment: SPR, antibody captured, antigen as analyte. The procedure:
as §1, §2
In turn, B5 gave a Kd of 5.3 nM.
On to B8, for which the Kd was found to be 6.9 nM.
In turn, B9 came in with a dissociation constant (Kd) of 5.4 nM.
In turn, B6 had a Kd of 6.9 nM.
B1: the Kd amounted to 4.7 nM.
The molecule B2 displayed a dissociation constant Kd of 5.2 nM.
Molecule B3 displayed a Kd of 3.4 nM.
The same measure, in the same setting: to B7 belongs 2.7 nM; to B4, 2.4 nM.

For a further test, the target named is T2, human CEACAM6, extracellular (mature …). As to the kind of experiment: ELISA, antibody captured, biotinylated antigen titrated. The procedure:
The binding characteristics of these antibodies were also determined by a binding ELISA (monovalent binding, biotinylated CEACAM proteins): A 1:440 dilution of an anti-human IgG (Sigma, 12136) in Coating buffer (Candor) was used to coat black 384-well Maxisorp plates (Nunc) for 1 hour at 37° C. After one wash with PBS/0.05% Tween-20 the plates were blocked with 100% SmartBlock (Candor) for 1 hour at 37° C. After three washes, 2 μg/ml of the relevant antibodies were added to the plate in PBS/0.05% Tween-20/10% SmartBlock. The plates were incubated for 1 hour at room temperature. After three washes dilution series of the relevant biotinylated CEACAM proteins in PBS/0.05% Tween-20/10% SmartBlock were added and the plates were incubated for one hour at room temperature. After three washes 1 μg/ml of Streptavidin-Peroxidase (Sigma, S5512) in PBS/0.05% Tween-20/10% SmartBlock was added and the plates were incubated for 30 minutes at room temperature. After three washes, the plates were developed with Amplex Red (Life Technologies) and fluorescence was read at an emission wavelength of 590 nm. GraphPad Prism 6.0 software was used to calculate EC₅₀ values using four-parameter non-linear curve fit.
Turning to B3, the EC50 amounted to 0.09 nM.
For B7, the response was half-maximal at 0.18 nM (EC50) and the “fold better binding than to human CEACAM3 (ratio of EC50 values)” value is roughly 620 fold.
As to B4, the 50% effective concentration (EC50) was determined as 0.19 nM and the “fold better binding than to human CEACAM3 (ratio of EC50 values)” value was roughly 730 fold.
